For this data set, the system named is Saccharomyces cerevisiae. Kind of data set: transcriptional activation domain activity (GFP:mCherry ratio, weighted mean of sorted bins, harmonized to initial dataset scale) (arbitrary fluorescence ratio units); higher = stronger transcriptional activation. To be noted: beta-estradiol 1 µM; induction time 4 h. The method in brief: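 Barcoded tiles were sequenced after cells were sorted into 8 bins by GFP:mCherry ratio. Before sorting, cultures had been diluted 1:5 into SC with 1 uM beta-estradiol and held for 4 hours at 30 °C. The tiles were fused to an estradiol-inducible synthetic transcription factor and integrated at URA3 in yeast diploids carrying a GFP reporter. Activation activity is the read-weighted mean of bin median fluorescence, averaged over barcodes and linearly mapped onto the initial dataset scale, and tiles under 50 reads were left out.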

In the case of “MIRDTPKSPSHPPSARSSSSRASSTTSCLSSTSTPAARTSSSSTTARTPVPRP”, the “transcriptional activation domain activity” value is 28600.
In the case of “PIMVVTLPLPAQITQYYPITLVSVLQWFAFWSFSALLTIPWLLCVYQLVTHSL”, the “transcriptional activation domain activity” value stood at 54400.
The result for “NIDPAAIDDKWLSEFINNSDPKSTFKINFNHFNDIGFIYSPPSSRSSIPNKSP” reads 101000; that for “KADEPAVEENGAKEDDSAKKQKTNGETETEKKGKGRGRPKKADGEKKAPAKKR”, 21400.
For “MWLVKCTYILYIYIFGKWKVREVLELTRVFFFFFSFFFFLFFFPFFFFFFFFF”, the “transcriptional activation domain activity” value is 59900.
Consider “KLSFRLLVLSSSEILVCFPVYPSFVGYDPIFSGFRVKLLIFLLSLWHLLLLFV”, for which the “transcriptional activation domain activity” value came to 42300.
The result for “WLLTFFTVDFLPNRDLRILLANWLNTLIHDPILKKHTDGLGIVRRLVKVAKEC” reads 48400; that for “SSAAAGSSGNASRAAMDVDGEVDADADENRRRSTRASAGRKKAGSAVKKAGTG”, less than 6570; that for “MCLFVLCLGLLVFFPTRYLLRSAWIKFIKYFNLFLRIIDLGCLFCIPCLIIKY”, 42500.
Turning to “MKDSHTARSDAVVFAIAVGRPFFFAAVLLRLLATETLGSSIALGVIGLVFIYC”, the “transcriptional activation domain activity” value was 42400.
With “AYFAQDSEEELMSPTQSITSNLASEENTRCTTKDLMGTVSIFMLPMVEECYNI” the figure was 75100.
With “HSTLLYCHLLLLPFLSSCWALFFLFPLSFGSLFFLFFFFLFLFGAFSFFLSSL” the figure was 39600.
The result for “GQHEGLDKLREYHEHVLDRILFALLLRKRQKPVMKLLEEIFTLVLKFSKYSSA” reads 59400; that for “FAHIQPGLNVPIRAIMLCYLFNVAFGLLYLGPSVAFGAYISSCTILLNVSYAF”, 57100; that for “PKAEAPKAEAPKPKEEESKKETAKQESKPEPKKADASKIAAPAASKPPAPKPS”, 49200.
On to “MVSYLIGALDIHMYGIWFWPFWLFESWASWIGLRDVFYLFIFFPLFFSLYSTL”, for which the “transcriptional activation domain activity” value was 49600.
With “ISVLGNQQIPGISHGDGLLPDVDGLLGNDTFWSFTDAAWMGEIEDNISGFIWD” the figure was 143000; with “HSACDIYYDNICLRLRLEGDLESYSYTARIVVVVLQLERRPMRGVPFITLVFD”, 29400; with “APIILGFSCGVCIHHLLACCIFVMIFIIRIFDPVYIPSMVLLFLCSCLSDRHG”, 69700.
The result for “SMLKIARQSPRGIRDSKGGEGFLLLESGDQSTNIVTVVRIKLLMEKLYTLPEL” reads 32200; that for “SSNFQTIDNENNVKTPGNKLTDFFQQQSAGWIEGNSSNDDFFGWFDMNMEQGF”, 133000; that for “VMMAIIYLMVIFTFIIGVVAGVVPFLYFLSESHFLMCRKASETAGFLCLMFAA”, 33700.
The result for “SGGAPRGRGRGRREEKGRGRGRERGGRGRGGDRGRGRGRGRGVGGGSMGGGGG” reads 15900.
As to “DSGGDRSTSPDSDRDKENKKASDKTEDSDKETQENGEEEKGGEKERESKKGEK”, the “transcriptional activation domain activity” value came out at 16700.
With “GVNAIGRRSSFQDVEAGKGGLIVPLRHLPPRGEDAGLVLQVHLNRAVSKLARM” the figure was 65200; with “VAECLKAMVKWPITMSPTCFHKRLIPCIFFWSQNLLGILLLLHLTEQVPILVR”, 72600; with “MPTTSHSLFLRYVFLFVAWLVFREVFALMGFFLLLIFLIPKIVKVPFFFFFFL”, 55000.
The result for “REDRQRKQQREKERAAREAEGTQRRRRKRRRTNGGAKTEEGEEENDGEEEEDG” reads 52800; that for “MMFETHFWSLSSLLLLFFLSFFFFLYIWGSRFFFFQFPFPFPFPFPFFFSIFF”, 53800.
With “MAIFRIYVLIAVVRLGDILTDIYVVGGVLLLLRYQVFLMFFHFFFFLFFYTGL” the figure was 43700; with “GLLKIVVILPVTDVPLPPYRVTPMFLGGMRDLVTHLLRRTSTILTCDRLWYLW”, 28400.
For the sequence “MCISRYWICLGKGSVLGYHSFIICFYLGLVEMMGYPLFAFFSLLFIRFLLFLS”, the “transcriptional activation domain activity” value is 43700.
The result for “MIHLLQYAYLFLFLLMLYDTLCHAILFFLTLNLTNWWYPIPFNMILHFIVPLF” reads 45300; that for “LIGCCVVYSLLSSFLLIFQCIPVSLAWNRWDGEHHGHCTNLVPLTWITALLNV”, 58900; that for “QGIGLMYLVLVMLCLASLLITNLHFLTVYRSTLIHSYMSQLIVFSFLLPLSLV”, 44700.
For the sequence “KKAKKGGDEAGAKGSGKPKKPAGEADGSVAAEGGAAKGKARKAASSEPKKGAK”, the “transcriptional activation domain activity” value is 27900.
The result for “LYLLIFFPVLLWRYLCIGLDSVLCCHIGFHFPYFMCYFFAIMSVSRSFFIHVY” reads 67200; that for “MCARSLFCGYIFFLVLYLLAWLGVFPCPFTLFLLSFLFPIFFFLLCWRLAFAC”, 45800.
The result for “HFILTGSDLGWVLVYFDYDDRIYIFLMEWCKLNCYWIILMYIWNILPTALLLQ” reads 34300; that for “DDEADGKRRRVQRACDSCRKKKCDVRARVYLCGCSKTPRSASQLLRRARGAHG”, 42500; that for “GESDDEGGGGRKRKKAKVEPAPKVKVERKPAAPVQEGEKKKRGRPRKVAPLPA”, 24400.
Consider “KSKKRRRDDGSSDTADSDGNRGRSTGKKRQRSRRGSDDNDSEADARKRSRKRR”, for which the “transcriptional activation domain activity” value is 23600.
With “MGASLRVQIWVCIRLELCCSWIWFLASFGILFFFFCFCPLRTSLHSFPLPLYI” the figure was 47800; with “AGIRLLERAWYWLHGRYRFTAGYVAELLLNGFKRPHGLLNAYVHHFTNFNITD”, 72000.
The result for “MLDVILYLPCLLITYLCWAVWFLFIVFLCFLLCWFCFVIDGLFPFFFITFVFL” reads 56100; that for “MNIDAPRPRPGGDRPIRRRRRPVVACNECRRRKIACDRKSPCCQCTLHRVNCV”, 44600.
Regarding “MIPSSAPLNFFLPFPFQFWFFFDFFFLTVEQPFFLCVVFFLLAFYVMLLYFFI”, the “transcriptional activation domain activity” value was 17900.
With “SPFASAGQTGQSPFGGLNKASSPAFAGTGSGSTFGQASTLGGAFGKPAEPAAT” the figure was 32400; with “SSSEEGSDGEEGDGEKDKDAKEKDGKDADGDVDMDADGKPKPKKAKPKKSTKK”, 31500.
The result for “DSPVDRAMNTPLQQQEGLKAELPHDFLFQHGTDDTMYNLTDDLSSSLSSSINS” reads 68200; that for “PFIIVTGLVVFVYYSYLDRIFLVLLRKLHRKALAIAYFVPLNIFIFLFIISYC”, 63700; that for “PLLVLSKRLHSIFMLRCFNDCFAVLGLWLAIFCYQRDQWHLGSFFYSTGLNVK”, 71500.
With “MSDDSGASPTQRSVRKPHRKSRNGCLDCRRRRVKCGEEHPSCRVCVRRNVRCE” the figure was 49800; with “RTESYDHMEPVGVDPRWDAFGPFHDYLLQAFPLVHSTLSLTKVNTWGLVYVWP”, 47400.
Regarding “SLAFQVDFTRKYGMVGFFLFWMMSQEAHHDPLLLLLHSPLYFPIFLLFWVILN”, the “transcriptional activation domain activity” value is 68800.
With “GHDGHGKGHGHGKGGHGRYARGEEAELEERGYGHGHGGHGKGGHGRYAREEEA” the figure was 21100; with “MASALLDFPYLHLGIPSFLRVNLFLNIHVHFFFVHFCLSPSVRFIFFYFFLYL”, 50300.
With “KGIAGLGPTKTIGLFVVLYIATAIFVFVYIVMQFLLVFGTLTERWPAGHLAFC” the figure was 52200; with “RRSKHSSRSHRSRRHRDRSVSDENGTERRHKSERRHKHRHRSRSGGSRERRHT”, 47200.
The result for “YGALGDNTVTLRRPDDSDIVVLFDDMVVHAWIKMLIVAKLICCVILRRTAALG” reads 46500; that for “KLWAKRRAIYGNVFGFPGGVAWAMLVARICQLYPNAVSATIVGKFFNILTKWN”, 33200.
On to “IYVELYFILSSIWFSRIYYMFGFLFLCYGLMIMTCATVTILMVYFLLCAENYN”, for which the “transcriptional activation domain activity” value turned out to be 58300.
Consider “MDSRPAKRPRKTETEDTLDDTDKKPHKKPPLSCAECRRLKLKVATLAASVIVY”, for which the “transcriptional activation domain activity” value was determined as 69000.
The result for “HIHCFVALFLVMPFFVLVFIVFLGGCNYCLQKKLVLPSLLLTFVIYGGGRLGF” reads 37900; that for “GGLFGAKPATTGGLFGSTPAAQPAQTGGLFGGGGTTGGFGASTTGGAFGSTPA”, 48500.
In the case of “LSNANHWKFIHIDEDGKLWRSNEFLLDLRLYNQDQVVIIYRFLHYVVKCCYES”, the “transcriptional activation domain activity” value came out at 54300.
With “LILILLIWRYCWYDGVIVNKIRAIGNDFCIWNPRMGEPLWTEYSHLVAKCLLF” the figure was 62700; with “SVTSEAIQVCVAARAREGEANRAVRNVIAEALRVPKSNVQVAKGLKSREKTLI”, 43300; with “PAEAPAAEPAAATEAPAETKDEKKEEKKEEKKEKKDEKKTEKSAKVGRRLSAR”, 45100.
With “VVLGWILGKECMTLYFDTFQIALLFVSVLLVNYLIQDGKSHWLEGVLLVCSYL” the figure was 37400; with “DDDIAMFDSLATTQPIDIAASNQQNGEIAQLWDFNVDQFNMTPSNSSGSATIS”, 91100.
The result for “MCFFSFFLFLLRIWLLFCLLLSIPLGFRMRSWGVPTAFVTILHFSLVMHLITV” reads 59900; that for “KYLIQSLILYPVPLLQVIITYFVQIKRYDISTVVGCSLLNVYYPNWMFLVFFL”, 58800.
With “ADIHDVVYYGTFTGIFPKLHWWIQKTLHLLKPFGLLSSRQVLVHFMLFHAEQR”, the “transcriptional activation domain activity” value stood at 83800.
